The results in this text go back to a protein production outcome set (Wang et al. 2014).

A short description of this series: label from the status in PepcDB records.

Take “MNNRDLLLGIFVMIIWGLNFSVIKLGVSEIDPLLLTALRFSFAVIPAVFFVKRPQVKWRYLMGYGLVFAIGVWGMGSWSIQAGLSAGMASVLLQMNVVISLLVGYFVLKETVAPIKVVGSVVAILGLALSVSVTDGSVTTLGLVFILIAALSWSITSILVKKAGTKEIFAFSIWGMLFAPLPLFALAFLRGGPEQLQTLNSLANGSVIFSVLFQAYPVTLFGYWVWNRLLVKYPLSTVAPLTFLVPIFGLLGSAIFYQEQIGLVKALACLLIIVGLIIGLIKTEKLKAYLHQPKSAKQVV”: the protein production result is recorded as “failed”. For “MNNRELYGNIRDVYHLLQKNLDKAIEQYDISYVQFGVIQVLAKSGKVSMSKLIENMGCVPSNMTTMIQRMKRDGYVMTEKNPNDQRETLVYLTKKGEETKKQVDVQYSDFLKENCGCFTKEEEGILEDLLLKWKKHLN” the value was “not failed”. Next, “MNNSFRNKIHEQSKENLSDDRHKKSDRTLIVFNRKTPLYFYFFEQVRYITGSIYILIETPSSRNLPIYSNICIPISSHPNTNYRPKKRKKNPPTVYLTTIILIMGLLSLEDTIKEKLKDRKNAHFMLVDGMSKLLTEKVKNCQSLDFQVSGVKWRLVIRLSRGRKDHLSFVLEITDEKCTGSTWDVKFNFKIGIVPQTGPDYCFVLVGHQNEKKRSQGLANFISHTDLKERFLVNDKAGFYAEISDVQPNFPVTRIPRTMGTAERFKLIEFSPKNSRFTWKITQFSSFDGEEHSSYEFTVGPRRWKLVMYPKGNGDGKGNSLSLYLFASDYVTNGPKGGTLAIYKLRVLDQLNRNHCETECRYWFPYNPVNQMDSLWGRPKFLPLEELHKSSRGFLVNDQIYIGVEISIVSTTEYL”: “failed”; “MNNTLLYVITVLIWGSTWIAINYQLGEVAAEVSIVYRFGLAALCMFAYCRFKKLPLKFSAKQHLQLSAFGLTLFGFNYYLLYNAQAHINSALTSIAFSTLMMINILNARVWFKTRISSRVYYGGALGLMGIVTLFWPQISNVHFGDSTLLGLGLCLIGVVFASTGNMISIKNQHDNMPVLPATAWGMMYGSLFMFVVALVQGQTFNFSYTFEYISSLLYLSIFGSVIAFGCYLTLLARIGAHKASYATIMFPAVAVVISSFFEGFIWDSYTFIGLSLMLAGNLVVLAKPGMLKRFNSTSLKQVSCSDAK”: “failed”; “MNPGKGPVLRFRVQLLVVGFALALGAAHQAQAAPGRALYKLPDLRVGLGDDNQGDTIPGPTRPNGSIHPSPDTLKASNAGYNPAEPISGFAQLHSQGSGGVTTYGTFLLSPQVGEPVFDEAAHLSPKADETLAADAYSVRLTRYDTKVEITSAHYAAIYRLTYPTTDQAQVVLDVTRKVGGLVASEQADVQLFPEQGRIVGHVKAKGYWNPALIDIWFVAEFDQNPTAWGVFDKAERRDGALSGRTGSDERLGAWLTFKTTPTKPLLVKIAVSFVSAEMAKALLDREIPDWDFERVRRDTQAAWNDRLGQVRVEGMTESQQRRFYSALYHASTHPRDRSLDQPAARLGRPNWDEHYTLWDTYRTLFPLISVLRPSLYTANVNSLIHTFDKFGAADTAIIGGQNYHVGQGGDEVDNVLGEALLRGAEGVNWRDAWRVARFNAFERRRPRYLESGYFAVGDRSPEPNNQRAKSGSSTLGFALNDFYAAQVAAKAGQTDEAKILTERSANWRKIWNPDATSDGFSGFLMPRYADGKFQDIDPKLGWDGKVHNNVGYYEGTAWIYSYGVLHDLPGLVEAMGGRVRFNERLNHALDAGLIDITNEPSFATPWLFHAIGRADLSSRWAGEVVKHFTADAYPGDEDAGAMSSNFVFNSLGLFPKLGSDLYYLHGPRHGRTVIQLENGKTLEILAAKAGASRPYIASASFNGKPLAGPYVSQAQLLGGGVLSLSMSDQPGQWIYEGAVLTVRADQPSLVDGKTSTGWRAASGQSVTFSLKAPACIAAYSVSVGPDQADPSHWTLQAYDGRAWVSVDQQSNVVFDHRHATRTFPLAPGRYARLRWVLDGGSEASVSEVELIAGASCAAPTSGAPLL”: “failed”. For “MNPIVKAPTLNDLPAPPPGKTGWPWTEQNEALPEKMPDGSDWPKISIVTPSYNYGQFIEETIRSVLLQGYPNLEYIVVDGGSTDNTVTIIRKYEKYLKYWASEPDHGQTDAINKGYRYCSGDVFAWLNADDLYYDQSTLLKVINFYQKGYDLIVGECLNINADGTHFNQAITSTEKSDPTYFKKYLRYWSSGFLPQPAIFVKKEMADQCFPLSIELYYAMDFQFFLRVLNQEPKSVWIQEKLTRLRWHEDSKTMGTISRIDFHAIVPEPEVHKVALAEAENLPTWLEKIFFRIQAFDYLSLQPYINSLDNFHWLQITKTIVKRPTLAVWPLFWKIFFRSLLGEQIYKLLKRTIRTNLEHHHHHH” the value was “not failed”; for “MNPLVIKLGGVLLDSEEALERLFTALVTYREKHERPLVIMHGGGCLVDELMKRLALPVVKKNGLRVTPADQIDIITGALAGTANKTLLAWAVKHQINAVGLCLADGNTVTVTLLDAELGHVGKAQPGSAALVQTLLAAGYMPIISSIGITVEGQLMNVNADQAATALAATLGADLILLSDVSGILDGKGQRIAEMTAQKAEQLIAQGIITDGMVVKVNAALDAARSLGRPVDIASWRHSEQLPALFNGVPIGTRISV”, “not failed”.

Regarding “MNPTTLADVDTVIINANILTLDRDCPHAQAIAFAAGRILALGTTQELSPLAGRAATVVDARGSTLLPGFIDSHSHLMFGGVVAQALDLTEAACLSDLLDMVRSRAQSTPEGEWIRGYGVAAGRLKEKRYPTRQELDQVSGGRPVWLAEDSFHASLVNSKAFRMLEIPLSTPGVELAADGSPTGAFLNDAANVPARQRVFGFISDDEARQMLQHVTQLGATRGVTTVHAFEGSRMSADRDIELLMRFRHELPIHVVPYYETFDVERAMQLGVSGVGGCGRNCLDGMPNIQTAAMVDPYCCSEERGSLFQESIKLHNFVIAAFERGMQVGMHAMGDAAIEQLLATYERAIEETGRTDLRPRIEHFHVPSRDHVRRAADLGVGLAVQPIFTHLWGGRDGIFFERLGERRYKRIDTYREILDSGAIASCGADLPVHPADPLRWIQLLVDNQIDRDQSVSMTEAIRMCTYNGAWLGFQESETGTLAVSKAADAVMLGRDPHQCMPHEIAAIPILKTLGGKLVFESSRPLEHHHHHH”, the protein production result is “failed”.

With “MNQDLSQTFLAITRNSTDLEWLQGALAPLGQVVGADGSLDELLALVDVTFANLVFVGLDREHVVAQAALIEGALEAKPMLAIVALGDGMDNQLVLNAMRAGARDFVAYGSRSSEVAGLVRRLSKRLPAVTPNTQLGGLTVLYGAQGDGDGALLASHLALVVQKSGQQTLLLDLGLPRGDSLALLGLESSFHFGDALRHLRRLDATLIDSAFTSAEAGLRILAYASHDAPLEHTSAAELYMLLSALRQHFQHIVVNLVGQPDSEALRTFVSHCDKLLWCTDQNVLDCRRNLAVLNHWREKGMKLEHARLLVDRYLRTVAPDSETLGKTFGLEVIAVLAYSPEVRLNAKNQGVTLFELAPREALTQSLRTLGERLAKRSQGLPKPKAGWLNRIMGGRLEHHHHHH”, the protein production entry is listed as “failed”. For “MNQEIAYLHPVKTARALVLVYLCFSVPIVAMGLFVAFIRYGDLPGITVFTALILNALIGFGLLWLGCKAYNWVAARFGGIEVHVRELTPEDRQ” the value was “failed”; for “MNQFGPSALINLSNFSSIKPEPASTPPQGSMANSTAVVKIPGTPGAGGRLSPENNQVLTKKKLQDLVREVDPNEQLDEDVEEMLLQIADDFIESVVTAACQLARHRKSSTLEVKDVQLHLERQWNMWIPGFGSEEIRPYKKACTTEAHKQRMALIRKTTKK”, “failed”; for “MNQHSFSLDDYYKSLINLDGMNDYYRYFIGLNGIIFPLLLIMSYPSVINLATKASFLIMLVGACCVLIDNWNRKSIAYRLYVELYENEYLANSDYKAGKVFVNLIFYVVSIYLISGVFGVL”, “failed”. Next, “MNQKDVKLTVFSSDEKSFMVTATLVEKAGHAFLINSKFTQSDSKEIVEYLKKNNLSLDKIFIIHGDPDYYFGLESIKAVYPEAIAYATESTVEHIVHSVLGKLKVWKDALGENAPSNVVLPQVFKEKAIDFQGLTFELVGLEHYRTSLFNKELKVLIGGIDVFNEIHVFLADTSSKAAMEAWIENLKVLQALHADIIVPSHGSIEKSLNNQALTATMDYLRTAVQASEESGTSKDFVAKLEAAYPDYANKGVLELSAKVVTKELEHHHHHH”: “failed”; “MNQQPIKIAVFGLGGVGGYYGAMLALRAAATDGLLEVSWIARGAHLEAIRAAGGLRVVTPSRDFLARPTCVTDNPAEVGTVDYILFCTKDYDMERGVAEIRPMIGQNTKILPLLNGADIAERMRTYLPDTVVWKGCVYISARKSAPGLITLEADRELFYFGSGLPEQTDDEVRLAELLTAAGIRAYNPTDIDWYIMKKFMMISVTATATAYFDKPIGSILTEHEPELLSLLEEVAELFRAKYGQVPDDVVQQLLDKQRKMPPESTSSMHSDFLQGGSTEVETLTGYVVREAEALRVDLPMYKRMYRELVSRTAN”: “not failed”; “MNQRIETITALLDEKKAFDITHIDLSKTPYLVEDVIIATTLANKHALSLLDALKNTLKPLGEVFYQIDESNEEWIILDLGDLMIHLFTEECRKKFDLEGFLNAYKRGLPYQNA”: “failed”.

With “MNQTFIYYTVLFLIIFITISNLVENYRYSPKKIKNIIGIAFLLQIIRIVSLIALALVSDQRYISLFKYVGFLDIIYIPLMALIAFYILLRSDKINFQFFKFAPMVLTGFYIGVITIFKPFFKMSWEYGYVITTEKQILLKSIYILFLVAILSFLILFKKENHSDKKGIVFLGVTLAFIIIENSLELLGVRFLNGAIISELILCILGFYIVLTFKKNRISIRDCIKS”, the protein production result was “failed”. For “MNRAFSRKKDKTWMHTPEALSKHFIPYNAKFLGSTEVEQPKGTEVVRDAVRKLKFARHIKKSEGQKIPKVELQISIYGVKILEPKTKEVQHNCQLHRISFCADDKTDKRIFTFICKDSESNKHLCYVFDSEKCVSIPDVVGWFVLFYKPGIVLLLALAKYLKMNNFL” the value was “failed”; for “MNRARTNDRRRAGDGPRRSRSAGRPQNSGRRPAAAPQGGEFALPKTITPALPAVETFAELDLPARMLAALGDQGVTEPFPIQAATLPNSLAGRDVLGRGRTGSGKTLAFGLALLARTAGKRAEPRRPLALVLVPTRELAQQVTDALTPYARAVGLRSATVVGGMSIGRQAGALRSGAEVVVATPGRLKDLIDRGDCALGDVTITVLDEADQMTDMGFMPQVTALLDQVAADGQRMLFSATLDRNVDKLVRRYLTDPVVHSVDPSAGAVTTMEHHVLHVQDEDKQRATIEIAARDGRVIMFLDTKHRVDRLVKHLLKSGVRAAGLHGGKSQPQRTRTLAQFKDGQVTALVATNVAARGIHVDNLDLVVNVDPPGDHKDYLHRGGRTARAGESGSVVTLVTPDQRREMTRLMSLAGITPQVTPVRSGEAELARITGAQTPSGVPVVITAPVVERPRRAAAGAGSPSRGRRGRSAQGRSGGQGTGTQARTGAAQSRTAGQSRTAAQGRPTGESPRRRPRRQSTGGSTGSAA”, “failed”; for “MNRFNYIGMLAYVALSMSSCDDSFDVSSKADGVLAVSQEGFNTLQSYNVGEKYTADLWIQQGGLKSTASVVSFSVDKALLDSMNIADGTSYELLPADCYQLTKSSVDIPANERLLKGELTYDPAKIQELSGYDHLKYVLPLRATSSGMPFVSGRSVLLLGFKVSEPIVTIMNAGVEEINLAEVKELPVQIGVPFTNKWEISCRLESRQSVIDAYNTAHGTYFSMLPSDAYVTPETPILHSGVNQVTATYKLKDDILPGNYMLPVQIAEVTSDATIRADKDVYAAYSIIKEGDKLSKTDWKIVSFTTEEASGEGSNNGHAKHLIDGNIETFWHSRWQGGSDPLPYEIIIDMNHRVKIAQIELLPRGRGSNNPIKVVRFEASEDGTNWESIGQFGFTNQDAALKYYVKSSTARYIKLVIPDGVGNGTVAAIRELDVRGTVVN”, “failed”.
